Here are results for two molecules from patent US9074002B2, “PTP1B inhibitors” (Cold Spring Harbor Laboratory, priority 2009, dated 2015).

Entries after “also recorded” stand apart in the source; their conditions may differ.

In assay [1] the target is T1, endogenous PTP1B under reducing conditions (Homo sapiens, UniProt P18031).
T1 construct: endogenous in cells; host or cells: 293T cells (transfected only with the scFv intrabody)
T1 sequence (P18031 1-435): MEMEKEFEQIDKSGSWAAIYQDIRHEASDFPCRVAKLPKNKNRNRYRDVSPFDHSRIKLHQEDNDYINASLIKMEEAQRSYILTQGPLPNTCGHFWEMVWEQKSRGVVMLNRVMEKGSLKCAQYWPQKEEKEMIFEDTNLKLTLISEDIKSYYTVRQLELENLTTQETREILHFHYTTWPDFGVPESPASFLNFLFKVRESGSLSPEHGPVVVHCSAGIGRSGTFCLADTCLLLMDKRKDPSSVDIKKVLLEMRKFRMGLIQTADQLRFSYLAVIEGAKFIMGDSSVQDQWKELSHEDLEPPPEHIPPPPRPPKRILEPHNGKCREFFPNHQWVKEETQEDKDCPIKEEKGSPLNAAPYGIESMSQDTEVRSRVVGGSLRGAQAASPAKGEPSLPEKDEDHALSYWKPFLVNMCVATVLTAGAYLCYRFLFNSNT
The assay is described as follows: Intrabody interaction in 293T cells under reducing condition (NAC, TCEP) (Ni-NTA pull down / immunoprecipitation). In kind it is cell-based. The note with it: 20 mM NAC, lysis buffer with 2 mM TCEP, FIGS. 11, 12. The method, then: (§1) One of the positive candidate scFvs (scFv45) was cloned in pcDNA3.2/V5-GW/D-TOPO expression vector and transiently expressed in mammalian cells as stable intracellular antibody (aka intrabody) (FIG. 10). To detect PTP1B-OX and scFv45 interaction in mammalian cells, scFv45 was overexpressed in 293T cells as described herein (See Example 4) and 48 hours post transfection the cells were serum-starved for 16 hours in growth medium (DMEM, low glucose) without serum (FBS), then incubated with 1 mM H2O2 (in growth medium without serum) for 5 minutes at 37° C. or treated with 20 mM NAC (in growth medium without serum) for 1 hour at 37° C. Cells treated with H2O2 were washed twice with cold (4° C.) PBS and lysed in lysis buffer (25 mM HEPES, pH 7.4, 150 mM NaCl, 0.25% Deoxychloate, 1% TritonX-100, 25 mM NaF, 10 mM MgCl2, 1 mM EDTA, 10% Glycerol, 0.5 mM PMSF, 10 mM Benzamidine, protease inhibitor cocktail). Cells treated with NAC were lysed with lysis buffer containing 2 mM TCEP to ensure a post-lysis reducing environment. Interaction between PTP1B and intrabody45 were tested by pulling down the protein complex from 1 mg of total cell lysate with Ni-NTA agarose or by immunoprecipitating PTP with anti-PTP1B (FG6). For the pull down experiment, Ni-NTA agarose beads were incubated with the lysates (both oxidized and reduced) at 4° C. Protein complex bound to the Ni-NTA agarose beads was pulled down and washed three times; first with lysis buffer containing 20 mM imidazole followed by two more washes with wash buffer (PBS, pH 7.4, 20 mM imidazole, 0.05% BSA, 0.05% Tween-20 and protease inhibitors). Applicant used 20 mM imidazole in the wash buffer to reduce the non-specific binding of proteins with the Ni-NTA agarose beads. The complex was eluted with wash buffer containing 500 mM imidazole with gentle shaking at 4° C. and the eluate was mixed with SDS sample buffer with DTT. For the immunoprecipitation experiments, 1 mg of total cell lystates (both oxidized and reduced) was incubated with anti-PTP1B antibody (FG6) at 4° C. The interacting protein complex was immunoprecipitated after incubating the lysate-antibody mixture with protein A/G Sepharose at 4° C. After immunoprecipitation, Sepharose beads were washed three times; first with lysis buffer followed by two more washes with wash buffer (PBS, pH 7.4, 0.05% BSA, 0.05% Tween-20 and protease inhibitors). The Sepharose beads were then heated at 90° C. in 2×SDS sample buffer with DTT. Proteins from the pulled down or immunoprecipitated complex were separated by SDS-PAGE. PTP was detected with anti-PTP1B antibody (FG6) and the intrabodies were detected with anti-HA (3F10)-HRP antibody [anti-HA (3F10)-HRP, Roche] by immunoblotting.
In the initial in vitro phosphatase screening assay using reversibly oxidized (with H2O2) recombinant PTP1B, Applicant found four different PTP1B-OX specific scFvs (scFv45, scFv57, scFv64 and scFv106) from the initial pool of 12 different scFvs. […] Applicant has also shown that scFv45, expressed as an intrabody in mammalian cells, can bind to endogenous PTP1B-OX but not endogenous PTP under reducing conditions. Further assessment was carried out to identify additional PTP1B-OX-specific intrabodies. Additional scFvs have been subcloned in pcDNA3.2/V5-GW/D-TOPO mammalian expression vector (FIG. 10) from their respective phagemid constructs. […]

For assay [2], the target named is T2, endogenous PTP1B-OX (Homo sapiens, UniProt P18031).
T2 construct: endogenous in cells; host or cells: 293T cells (transfected only with the scFv intrabody)
T2 sequence (P18031 1-435): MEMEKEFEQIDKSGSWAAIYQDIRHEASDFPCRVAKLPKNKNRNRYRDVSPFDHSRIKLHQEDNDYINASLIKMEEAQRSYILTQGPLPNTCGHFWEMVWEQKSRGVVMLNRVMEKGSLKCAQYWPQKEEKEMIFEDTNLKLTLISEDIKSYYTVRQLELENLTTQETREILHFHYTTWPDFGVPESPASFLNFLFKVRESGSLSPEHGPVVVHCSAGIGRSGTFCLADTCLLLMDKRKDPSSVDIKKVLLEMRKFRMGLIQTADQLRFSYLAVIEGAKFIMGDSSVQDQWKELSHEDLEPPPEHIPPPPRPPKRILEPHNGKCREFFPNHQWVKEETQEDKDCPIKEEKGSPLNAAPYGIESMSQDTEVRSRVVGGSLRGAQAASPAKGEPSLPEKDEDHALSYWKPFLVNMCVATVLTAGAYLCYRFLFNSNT
The assay is described as follows: Intrabody interaction in 293T cells treated with H2O2 (Ni-NTA pull down / anti-PTP1B immunoprecipitation). The note with it: 1 mM H2O2 5 minutes, FIGS. 11, 12. In kind it is cell-based. The method, then:
as §1
In the initial in vitro phosphatase screening assay using reversibly oxidized (with H2O2) recombinant PTP1B, Applicant found four different PTP1B-OX specific scFvs (scFv45, scFv57, scFv64 and scFv106) from the initial pool of 12 different scFvs. […] Applicant has also shown that scFv45, expressed as an intrabody in mammalian cells, can bind to endogenous PTP1B-OX but not endogenous PTP under reducing conditions. Further assessment was carried out to identify additional PTP1B-OX-specific intrabodies. Additional scFvs have been subcloned in pcDNA3.2/V5-GW/D-TOPO mammalian expression vector (FIG. 10) from their respective phagemid constructs. After transient overexpression of these scFvs as intrabodies in 293T cells, the interaction between endogenous PTP1B and these intrabodies in both H2O2-treated cells and cells was observed under reducing condition (treated with NAC and lysed with lysis buffer containing TCEP). […] All can be used in the methods and compositions described herein. Additional scFvs, such as some or all of the 137 selected individual scFvs from the library, can be similarly tested by in vitro screening and/or by binding assay in mammalian cells.

B1: scFv67: scFv, SEQ ID NO: 100 and 161 (protein)
scFv: MKKTAIAIAVALAGFATVAQAALTQPSSVSANPGGTVKITCSGSSSAYGYGWYQQKSPGSAPVTVIYNNNKRPSNIPSRFSGSKSGSTGTLTITGVQAEDEAVYFCGSEDSSTDAIFGAGTTLTVLGQSSRSSAVTLDESGGGLQTPGGALSLVCKASGFTFSSYDMGWVRQAPGKGLEYVAGITNDGRYASYGSAVDGRATISRDNGQSTVRLQLNNLRAEDTGTYYCARDDGSGWTGNTIDTWGHGTEVIVSSTSGQAGQHHHHHHGAYPYDVPDYAS
Turning to B1, in assay [1], the “binding of intrabody to endogenous PTP1B under reducing conditions” value was “not in the presence of NAC and TCEP”. Further, the “binding of intrabody to endogenous PTP1B-OX” value in assay [2] is listed as “bound to endogenous PTP1B-OX strongly; also recorded: co-pulldown of PTP1B-OX in the presence of H2O2”.

B2: scFv102: scFv, SEQ ID NO: 130 and 162 (protein)
scFv: MKKTAIAIAVALAGFATVAQAALTQPSSVSANPGETVKITCSGGSGSYGWYQQESPGSAPVTVIYYNDKRPSDIPSRFSGSASGSTATLTIAGVRAEDEAVYFCGSWDSSTSAGIFGAGTALTVLGQSSRSSAVTLDESGGGLQTPGGGLSLVCKASGFSSSHGMGWMRQAPGKGLEFVAGIRSDGSSTAYGAAVDGRATITRDDGQSTVTLQLNNLRAEDTATYFCAKTNSYNSAGIIDAWGHGTEVIVSSTSGQAGQHHHHHHGAYPYDVPDYAS
With B2, the “binding of intrabody to endogenous PTP1B under reducing conditions” value in assay [1] was “not in the presence of NAC and TCEP”. Moreover, in assay [2], the “binding of intrabody to endogenous PTP1B-OX” value is on record as “bound to endogenous PTP1B-OX strongly; also recorded: co-pulldown of PTP1B-OX in the presence of H2O2”.
